Ends that are not written are not given here.
Assays:
Experiment in all cases: peptide microarray
ApoC3 peptide … D59W = biological target: T1, ApoC3 peptide … D59W (human, not fully specified (bridges); also: cyclic constrained)
T1 peptide: WKFSEFWDLDPEV
Procedure: (§1) F64 was completely variable.
(§2) Pre: staining of one of the ApoC3 peptide microarrays was done with the secondary antibody goat anti-human IgG (Fe) DyLight680 (1:5000) and control antibody mouse monoclonal anti-HA (12CA5) DyLight800 (1:2000) to investigate background interactions of the secondary antibody with the antigen-derived peptides that could interfere with the main assays. Subsequent incubation of other ApoC3 peptide microarrays with antibody samples was followed by staining with secondary and control antibodies as well as read-out at scanning intensities of 7/7 (red/green). The additional HA peptides framing the peptide arrays were stained as internal quality control to confirm the assay quality and the peptide microarray integrity.

ApoC3 peptide … V71T = ApoC3 peptide … V71T (human, cyclic constrained)
Procedure: as §1, §2

ApoC3 peptide … D68E = biological target: T2, ApoC3 peptide … D68E (human, cyclic constrained)
T2 peptide: DKFSEFWDLEPEV
Procedure: as §1, §2

ApoC3 peptide … V71I = ApoC3 peptide … V71I (human, cyclic constrained)
Procedure: as §1, §2

ApoC3 peptide … W65K = biological target: T3, ApoC3 peptide … W65K (human, not fully specified (bridges); also: cyclic constrained, ring type and places not given here)
T3 peptide: DKFSEFKDLDPEV
Procedure: as §1, §2

ApoC3 peptide … F64N = biological target: T4, ApoC3 peptide … F64N (human, not fully specified (bridges); also: cyclic constrained)
T4 peptide: DKFSENWDLDPEV
Procedure: as §1, §2

ApoC3 peptide … W65R = biological target: T5, ApoC3 peptide … W65R (human, not fully specified (bridges); also: cyclic constrained, ring type and places not given here)
T5 peptide: DKFSEFRDLDPEV
Procedure: as §1, §2

ApoC3 peptide … E63P = ApoC3 peptide … E63P (human, cyclic constrained)
Procedure: as §1, §2

ApoC3 peptide … W65N = biological target: T6, ApoC3 peptide … W65N (human, not fully specified (bridges); also: cyclic constrained, ring type and places not given here)
T6 peptide: DKFSEFNDLDPEV
Procedure: as §1, §2

ApoC3 peptide … W65S = biological target: T7, ApoC3 peptide … W65S (human, not fully specified (bridges); also: cyclic constrained, ring type and places not given here)
T7 peptide: DKFSEFSDLDPEV
Procedure: as §1, §2

ApoC3 peptide … S62E = ApoC3 peptide … S62E (human, cyclic constrained)
Procedure: as §1, §2

ApoC3 peptide … F64V = biological target: T8, ApoC3 peptide … F64V (human, not fully specified (bridges); also: cyclic constrained)
T8 peptide: DKFSEVWDLDPEV
Procedure: as §1, §2

ApoC3 peptide … V71R = ApoC3 peptide … V71R (human, cyclic constrained)
Procedure: as §1, §2

ApoC3 peptide … F64G = biological target: T9, ApoC3 peptide … F64G (human, not fully specified (bridges); also: cyclic constrained)
T9 peptide: DKFSEGWDLDPEV
Procedure: as §1, §2

ApoC3 peptide … W65I = biological target: T10, ApoC3 peptide … W65I (human, not fully specified (bridges); also: cyclic constrained, ring type and places not given here)
T10 peptide: DKFSEFIDLDPEV
Procedure: as §1, §2

ApoC3 peptide … L67D = biological target: T11, ApoC3 peptide … L67D (human, not fully specified (bridges); also: cyclic constrained)
T11 peptide: DKFSEFWDDDPEV
Procedure: as §1, §2

ApoC3 peptide … D66A = biological target: T12, ApoC3 peptide … D66A (human, not fully specified (bridges); also: cyclic constrained)
T12 peptide: DKFSEFWALDPEV
Procedure: as §1, §2

ApoC3 peptide … D68W = ApoC3 peptide … D68W (human, cyclic constrained)
Procedure: as §1, §2

ApoC3 peptide … D68Q = biological target: T13, ApoC3 peptide … D68Q (human, cyclic constrained)
T13 peptide: DKFSEFWDLQPEV
Procedure: as §1, §2

ApoC3 peptide … F64P = biological target: T14, ApoC3 peptide … F64P (human, not fully specified (bridges); also: cyclic constrained)
T14 peptide: DKFSEPWDLDPEV
Procedure: as §1, §2

ApoC3 peptide … F61V = biological target: T15, ApoC3 peptide … F61V (human, not fully specified (bridges); also: cyclic constrained)
T15 peptide: DKVSEFWDLDPEV
Procedure: as §1, §2

ApoC3 peptide … D68L = biological target: T16, ApoC3 peptide … D68L (human, cyclic constrained)
T16 peptide: DKFSEFWDLLPEV
Procedure: as §1, §2

ApoC3 peptide … D68G = biological target: T17, ApoC3 peptide … D68G (human, cyclic constrained)
T17 peptide: DKFSEFWDLGPEV
Procedure: as §1, §2

ApoC3 peptide … E70C = ApoC3 peptide … E70C (human, cyclic constrained)
Procedure: as §1, §2

ApoC3 peptide … F61N = biological target: T18, ApoC3 peptide … F61N (human, not fully specified (bridges); also: cyclic constrained)
T18 peptide: DKNSEFWDLDPEV
Procedure: as §1, §2

ApoC3 peptide … P69S = ApoC3 peptide … P69S (human, cyclic constrained)
Procedure: as §1, §2

ApoC3 peptide … S62V = ApoC3 peptide … S62V (human, cyclic constrained)
Procedure: as §1, §2

ApoC3 peptide … P69G = biological target: T19, ApoC3 peptide … P69G (human, not fully specified (bridges); also: cyclic constrained)
T19 peptide: DKFSEFWDLDGEV
Procedure: as §1, §2

ApoC3 peptide … D66W = biological target: T20, ApoC3 peptide … D66W (human, not fully specified (bridges); also: cyclic constrained)
T20 peptide: DKFSEFWWLDPEV
Procedure: as §1, §2

ApoC3 peptide … D66L = biological target: T21, ApoC3 peptide … D66L (human, not fully specified (bridges); also: cyclic constrained)
T21 peptide: DKFSEFWLLDPEV
Procedure: as §1, §2

ApoC3 peptide … F61G = biological target: T22, ApoC3 peptide … F61G (human, cyclic constrained)
T22 peptide: DKGSEFWDLDPEV
Procedure: as §1, §2

ApoC3 peptide … P69Y = ApoC3 peptide … P69Y (human, cyclic constrained)
Procedure: as §1, §2

ApoC3 peptide … P69W = ApoC3 peptide … P69W (human, cyclic constrained)
Procedure: as §1, §2

ApoC3 peptide … K60M = biological target: T23, ApoC3 peptide … K60M (human, not fully specified (bridges); also: cyclic constrained)
T23 peptide: DMFSEFWDLDPEV
Procedure: as §1, §2

ApoC3 peptide … F61R = biological target: T24, ApoC3 peptide … F61R (human, not fully specified (bridges); also: cyclic constrained)
T24 peptide: DKRSEFWDLDPEV
Procedure: as §1, §2

ApoC3 peptide … D66F = biological target: T25, ApoC3 peptide … D66F (human, not fully specified (bridges); also: cyclic constrained)
T25 peptide: DKFSEFWFLDPEV
Procedure: as §1, §2

B1: anti-ApoC3 antibody 6A6 (antibody, V domains shown)
VH: EVQLVESGGGLVQPGGSLRLSCAASGFTFSSYAGRWVRQVPGKGLEWVSSINAGGGSTSYADSVKGRFTISRDNAKNTLYLQMNSLKPEDTAKYYCTQNSYRYWGQGTRVAVSS
VL: DVVLTQTPGSLSVVPGESASISCKASQSLIHTDGKTYLYWLLQKPGQRPQLLIYQVSSHESGVPDRFTGSGSGTDFTLKISGVKAEDAGVYYCAQATYNPRTFGQGTKLEIK
notes: it was detected with goat anti-human IgG (Fc); also called mAb 6A6; llama antibody 6A6
- % of binding to wild-type peptide (ApoC3 peptide … D59W): 78.1%
- % of binding to wild-type peptide (ApoC3 peptide … V71T): 94.5%
- % of binding to wild-type peptide (ApoC3 peptide … D68E): 56.9%
- % of binding to wild-type peptide (ApoC3 peptide … V71I): 54.3%
- % of binding to wild-type peptide (ApoC3 peptide … W65K): 0%
- % of binding to wild-type peptide (ApoC3 peptide … F64N): 153%
- % of binding to wild-type peptide (ApoC3 peptide … W65R): 7.71%
- % of binding to wild-type peptide (ApoC3 peptide … E63P): 138%
- % of binding to wild-type peptide (ApoC3 peptide … W65N): 56.5%
- % of binding to wild-type peptide (ApoC3 peptide … W65S): 132%
- % of binding to wild-type peptide (ApoC3 peptide … S62E): 70.7%
- % of binding to wild-type peptide (ApoC3 peptide … F64V): 86%
- % of binding to wild-type peptide (ApoC3 peptide … V71R): 47.5%
- % of binding to wild-type peptide (ApoC3 peptide … F64G): 168%
- % of binding to wild-type peptide (ApoC3 peptide … W65I): 20.3%
- % of binding to wild-type peptide (ApoC3 peptide … L67D): 2.89%
- % of binding to wild-type peptide (ApoC3 peptide … D66A): 0%
- % of binding to wild-type peptide (ApoC3 peptide … D68W): 0%
- % of binding to wild-type peptide (ApoC3 peptide … D68Q): 0%
- % of binding to wild-type peptide (ApoC3 peptide … F64P): 285%
- % of binding to wild-type peptide (ApoC3 peptide … F61V): 47%
- % of binding to wild-type peptide (ApoC3 peptide … D68L): 0%
- % of binding to wild-type peptide (ApoC3 peptide … D68G): 0%
- % of binding to wild-type peptide (ApoC3 peptide … E70C): 0%
- % of binding to wild-type peptide (ApoC3 peptide … F61N): 48.3%
- % of binding to wild-type peptide (ApoC3 peptide … P69S): 75.6%
- % of binding to wild-type peptide (ApoC3 peptide … S62V): 93.6%
- % of binding to wild-type peptide (ApoC3 peptide … P69G): 16.3%
- % of binding to wild-type peptide (ApoC3 peptide … D66W): 0%
- % of binding to wild-type peptide (ApoC3 peptide … D66L): 0%
- % of binding to wild-type peptide (ApoC3 peptide … F61G): 25.9%
- % of binding to wild-type peptide (ApoC3 peptide … P69Y): 52%
- % of binding to wild-type peptide (ApoC3 peptide … P69W): 13.7%
- % of binding to wild-type peptide (ApoC3 peptide … K60M): 146%
- % of binding to wild-type peptide (ApoC3 peptide … F61R): 35.6%
- % of binding to wild-type peptide (ApoC3 peptide … D66F): 7.27%

— patent publication US20190241648A1 (STATEN BIOTECHNOLOGY B V, published 2019)
